Test results taken from US20230416345A1, “NEW TYPE II COLLAGEN BINDING PROTEINS” (Navigo Proteins GmbH, priority 2020, published 2023).

Legend:
BSA = BSA (Bos taurus, UniProt P02769); test: SPR control BSA; format: binding
Protocol: (§1) The purified proteins were immobilized on a CM-5 sensor chip (GE Healthcare) using NHS/EDC after PDEA activation resulting in 110-140 RU with a Biacore 3000 system (GE Healthcare). The chip was equilibrated with SPR running buffer (PBS 0.05% Tween pH 7.3). Upon binding, target analyte was accumulated on the surface increasing the refractive index. This change in the refractive index was measured in real time and plotted as response or resonance units versus time. The analytes were applied to the chip in serial dilutions with a flow rate of 30 μl/min. The association was performed for 120 seconds and the dissociation for 120 seconds. After each run, the chip surface was regenerated with 30 μl regeneration buffer (10 mM glycine pH 2.0) and equilibrated with running buffer.
(§2) Binding studies were carried out by the use of the BIAcore 3000 (GE Healthcare); data evaluation was operated via the BIAevaluation 3.0 software, provided by the manufacturer, using the Langmuir 1:1 model (RI=0). Evaluated dissociation constants (KD) were standardized against the immobilized protein and indicated. Shown is the change in refractive index measured in real time and plotted as response or resonance unit [RU] versus time [sec].

[1] = biological target: extradomain B of fibronectin (Homo sapiens, UniProt P02751); test: SPR control extradomain B of fibronectin; format: binding
Sequence of extradomain B of fibronectin (P02751 1271-1359 limits assumed): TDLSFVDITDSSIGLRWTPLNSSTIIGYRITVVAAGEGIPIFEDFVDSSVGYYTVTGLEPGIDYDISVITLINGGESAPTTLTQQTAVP
Protocol: as §1, §2

[2] = biological target: T1, recombinant human collagen type II (h Col II) (Homo sapiens, UniProt P02458); test: KD-determination by ELISA vs human collagen type II; format: binding
T1 construct: purchased Chondrex CHX-20051
T1 sequence (P02458 182-1241): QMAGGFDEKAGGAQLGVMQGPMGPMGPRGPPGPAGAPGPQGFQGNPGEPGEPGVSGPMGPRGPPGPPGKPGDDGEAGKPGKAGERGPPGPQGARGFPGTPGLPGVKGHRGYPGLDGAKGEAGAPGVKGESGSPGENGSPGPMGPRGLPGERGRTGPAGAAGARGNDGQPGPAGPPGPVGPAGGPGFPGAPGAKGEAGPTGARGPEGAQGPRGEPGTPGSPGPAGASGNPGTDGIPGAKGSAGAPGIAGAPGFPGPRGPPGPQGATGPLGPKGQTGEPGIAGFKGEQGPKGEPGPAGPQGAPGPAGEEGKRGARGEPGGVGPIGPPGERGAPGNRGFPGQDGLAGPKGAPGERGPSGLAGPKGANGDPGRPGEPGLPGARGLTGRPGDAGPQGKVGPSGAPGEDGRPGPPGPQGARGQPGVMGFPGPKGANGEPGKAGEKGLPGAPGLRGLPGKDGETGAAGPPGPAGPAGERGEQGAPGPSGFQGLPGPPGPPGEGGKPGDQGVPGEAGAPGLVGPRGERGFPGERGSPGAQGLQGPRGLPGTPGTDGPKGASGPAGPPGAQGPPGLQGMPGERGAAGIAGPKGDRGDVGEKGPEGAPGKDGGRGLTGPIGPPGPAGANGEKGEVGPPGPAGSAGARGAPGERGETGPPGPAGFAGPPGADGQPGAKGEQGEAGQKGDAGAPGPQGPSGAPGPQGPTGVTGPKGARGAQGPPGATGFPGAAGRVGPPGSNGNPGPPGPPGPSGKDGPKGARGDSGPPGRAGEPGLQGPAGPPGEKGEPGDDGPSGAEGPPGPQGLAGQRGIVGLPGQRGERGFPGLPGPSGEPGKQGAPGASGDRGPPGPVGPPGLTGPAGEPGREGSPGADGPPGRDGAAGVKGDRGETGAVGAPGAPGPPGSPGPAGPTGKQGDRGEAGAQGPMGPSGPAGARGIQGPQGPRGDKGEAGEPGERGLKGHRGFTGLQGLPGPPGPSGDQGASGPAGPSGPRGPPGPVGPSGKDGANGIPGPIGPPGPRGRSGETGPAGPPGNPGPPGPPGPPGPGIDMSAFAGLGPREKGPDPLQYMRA
Protocol: (§3) High binding plates (Greiner, 781061) were immobilized with 2.5 μg/ml recombinant human collagen type II (h Col II, Chondrex, CHX-20051), rabbit collagen type II (rbCol II, prepared from rabbit eyes), porcine collagen type II (p Col II, prepared from porcine eyes), human collagen type I, (h Col I, Sigma, C5483-1MG), human collagen type V (h Col V, Abcam, ab7537), human collagen type III (h Col Ill, Abcam, ab7535) and 67B89 (domain of fibronectin, produced in E. coli) respectively over night at 4° C. ELISA-plates were washed 3 times with PBST (PBS+ 0.1% Tween) and blocked with 3% BSA/0.5% Tween/PBS 2 h at RT. After washing with PBST, dilution series of 1.1 μM to 7×10^−4 nM of dimers (CID 211999, CID 212000), dilution series of 100 nM to 7×10^−6 nM of tetramers (CID 212001 and CID 212704) and dilution series of 10 μM to 2 nM of dimer (CID 212705) were incubated on ELISA-plates 1 h at rt. Plates were washed with PBST and incubated with biotinylated anti-StrepTag-ab (Antikörper-online, ABIN1573895) with a dilution of 1:10.000 for 1 h at rt. The binding was visualized with a-rabbit-IgG-HRP (Sigma, A9169) with a dilution of 1:10.000 and as substrate TMB Plus von KEM EN TEC Diagnostic, Kat-Nr. 4395.

human collagen type III = biological target: T2, human collagen type III (Homo sapiens, UniProt P02461); test: ELISA specificity vs human collagen type III; format: binding
T2 construct: purchased Abcam ab7535
T2 sequence (P02461 154-1221 limits assumed): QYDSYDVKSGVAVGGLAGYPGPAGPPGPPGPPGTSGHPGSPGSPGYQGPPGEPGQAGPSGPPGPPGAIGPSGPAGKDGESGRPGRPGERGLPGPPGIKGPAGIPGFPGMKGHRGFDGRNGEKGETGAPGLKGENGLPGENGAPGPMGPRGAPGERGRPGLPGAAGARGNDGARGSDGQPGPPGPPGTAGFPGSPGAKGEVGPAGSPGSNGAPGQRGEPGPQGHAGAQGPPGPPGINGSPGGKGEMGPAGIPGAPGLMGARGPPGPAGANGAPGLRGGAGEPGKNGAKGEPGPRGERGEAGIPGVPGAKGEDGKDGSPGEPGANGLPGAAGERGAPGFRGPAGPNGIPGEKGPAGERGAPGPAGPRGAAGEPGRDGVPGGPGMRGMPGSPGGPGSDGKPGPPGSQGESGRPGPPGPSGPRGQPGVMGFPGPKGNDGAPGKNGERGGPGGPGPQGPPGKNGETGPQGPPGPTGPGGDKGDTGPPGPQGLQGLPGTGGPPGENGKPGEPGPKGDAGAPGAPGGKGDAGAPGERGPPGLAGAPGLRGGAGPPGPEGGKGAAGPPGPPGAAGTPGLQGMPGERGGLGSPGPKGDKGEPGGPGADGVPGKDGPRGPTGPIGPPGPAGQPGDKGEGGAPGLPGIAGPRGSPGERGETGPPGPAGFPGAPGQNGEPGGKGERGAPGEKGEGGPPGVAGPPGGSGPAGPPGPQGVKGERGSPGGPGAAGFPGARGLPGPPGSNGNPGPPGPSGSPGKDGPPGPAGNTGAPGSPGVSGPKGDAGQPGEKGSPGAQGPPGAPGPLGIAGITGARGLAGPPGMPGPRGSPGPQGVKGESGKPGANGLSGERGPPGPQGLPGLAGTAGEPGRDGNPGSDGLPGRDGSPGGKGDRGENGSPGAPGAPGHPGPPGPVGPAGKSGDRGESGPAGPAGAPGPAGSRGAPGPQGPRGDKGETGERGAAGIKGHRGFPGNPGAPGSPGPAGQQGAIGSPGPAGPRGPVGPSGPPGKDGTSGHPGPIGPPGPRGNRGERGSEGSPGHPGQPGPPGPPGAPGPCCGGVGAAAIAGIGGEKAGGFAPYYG
Protocol: as §3

Type I collagen = Type I collagen (Homo sapiens, UniProt P02452+P08123); test: SPR specificity vs Type I collagen; format: binding
Sequence of Type I collagen (P02452 162-1218 limits assumed): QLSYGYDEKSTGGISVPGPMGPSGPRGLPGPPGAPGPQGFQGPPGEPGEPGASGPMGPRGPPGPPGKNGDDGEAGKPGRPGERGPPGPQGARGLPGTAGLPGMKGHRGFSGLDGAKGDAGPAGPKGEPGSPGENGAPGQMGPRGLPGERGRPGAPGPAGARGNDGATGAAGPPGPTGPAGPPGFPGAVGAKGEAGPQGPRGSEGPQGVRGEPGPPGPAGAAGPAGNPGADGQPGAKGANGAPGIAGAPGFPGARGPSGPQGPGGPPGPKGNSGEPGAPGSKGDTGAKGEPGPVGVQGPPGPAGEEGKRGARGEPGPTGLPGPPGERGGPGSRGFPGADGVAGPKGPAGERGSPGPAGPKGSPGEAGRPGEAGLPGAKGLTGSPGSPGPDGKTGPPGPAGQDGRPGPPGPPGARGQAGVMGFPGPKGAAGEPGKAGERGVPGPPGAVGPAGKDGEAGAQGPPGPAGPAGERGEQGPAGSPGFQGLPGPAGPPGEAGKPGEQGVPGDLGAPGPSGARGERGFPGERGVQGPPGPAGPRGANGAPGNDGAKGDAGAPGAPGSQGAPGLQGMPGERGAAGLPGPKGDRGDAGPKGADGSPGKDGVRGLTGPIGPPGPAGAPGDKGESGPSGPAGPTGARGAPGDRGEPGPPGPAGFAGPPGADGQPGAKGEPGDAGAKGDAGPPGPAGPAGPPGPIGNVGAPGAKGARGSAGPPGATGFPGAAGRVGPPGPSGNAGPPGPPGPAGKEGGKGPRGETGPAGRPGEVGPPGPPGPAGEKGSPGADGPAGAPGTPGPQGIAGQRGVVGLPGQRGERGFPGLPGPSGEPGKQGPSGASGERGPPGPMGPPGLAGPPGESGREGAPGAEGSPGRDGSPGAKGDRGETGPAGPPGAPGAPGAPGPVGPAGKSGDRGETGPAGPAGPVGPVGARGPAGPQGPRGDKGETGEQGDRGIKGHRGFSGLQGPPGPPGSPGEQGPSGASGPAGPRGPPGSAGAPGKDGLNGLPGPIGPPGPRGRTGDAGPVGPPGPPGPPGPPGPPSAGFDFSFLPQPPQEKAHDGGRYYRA
Sequence of Type I collagen (P08123 80-1119 limits assumed): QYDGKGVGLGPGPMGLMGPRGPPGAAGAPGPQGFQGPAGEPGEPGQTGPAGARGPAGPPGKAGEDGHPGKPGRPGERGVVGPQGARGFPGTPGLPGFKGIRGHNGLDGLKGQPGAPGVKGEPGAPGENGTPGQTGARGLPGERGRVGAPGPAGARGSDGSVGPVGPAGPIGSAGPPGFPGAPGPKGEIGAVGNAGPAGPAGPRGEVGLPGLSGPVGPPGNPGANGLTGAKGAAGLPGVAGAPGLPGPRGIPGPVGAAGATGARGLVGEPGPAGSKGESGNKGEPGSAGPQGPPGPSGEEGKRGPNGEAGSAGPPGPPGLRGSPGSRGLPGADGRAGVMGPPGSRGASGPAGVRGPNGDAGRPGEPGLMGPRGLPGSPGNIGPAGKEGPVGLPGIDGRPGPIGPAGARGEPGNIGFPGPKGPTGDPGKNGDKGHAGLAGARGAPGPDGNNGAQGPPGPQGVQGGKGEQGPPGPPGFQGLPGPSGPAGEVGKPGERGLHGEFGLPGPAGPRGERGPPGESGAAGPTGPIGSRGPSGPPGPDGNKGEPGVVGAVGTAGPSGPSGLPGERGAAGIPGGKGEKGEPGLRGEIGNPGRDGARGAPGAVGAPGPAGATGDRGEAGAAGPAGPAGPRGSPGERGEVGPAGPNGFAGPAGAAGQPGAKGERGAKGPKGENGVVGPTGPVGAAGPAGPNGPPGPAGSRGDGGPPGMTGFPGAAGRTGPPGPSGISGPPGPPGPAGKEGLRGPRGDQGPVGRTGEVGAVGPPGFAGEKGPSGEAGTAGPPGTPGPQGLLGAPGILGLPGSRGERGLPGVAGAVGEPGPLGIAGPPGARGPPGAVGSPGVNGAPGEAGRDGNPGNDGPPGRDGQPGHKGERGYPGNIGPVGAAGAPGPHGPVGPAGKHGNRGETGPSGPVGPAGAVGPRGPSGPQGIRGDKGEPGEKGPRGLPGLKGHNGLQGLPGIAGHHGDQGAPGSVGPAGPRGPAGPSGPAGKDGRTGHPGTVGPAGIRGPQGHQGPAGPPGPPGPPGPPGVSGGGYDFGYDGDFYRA
Protocol: as §1, §2

Type III collagen = biological target: T3, Type III collagen (Homo sapiens, UniProt P02461); test: SPR specificity vs Type III collagen; format: binding
T3 sequence (P02461 154-1221 limits assumed): T2 sequence (P02461 154-1221 limits assumed)
Protocol: as §1, §2

[3] = biological target: T4, human collagen type I (h Col I) (Homo sapiens, UniProt P02452+P08123); test: ELISA specificity vs human collagen type I; format: binding
T4 construct: purchased Sigma C5483-1MG
T4 sequence (P02452 162-1218 limits assumed): as the sequence (P02452 162-1218 limits assumed) above
T4 sequence (P08123 80-1119 limits assumed): as the sequence (P08123 80-1119 limits assumed) above
Protocol: as §3

[4] = Soluble expression in Escherichia coli BL21(DE3); format: physicochemical; conditions: expression in E. coli BL21(DE3)
Protocol: Variants with affinity tag were expressed in Escherichia coli BL21(DE3) using a low copy plasmid system under regulation of a T7 promoter. Proteins were produced in soluble form after induction by lactose included in the medium (autoinduction medium). BL21 (DE3) competent cells were transformed with the expression plasmid, spread onto selective agar plates (kanamycin) and incubated overnight at 37° C. Precultures were inoculated from single colony in 3 ml 2×YT medium supplemented with 50 μg/ml kanamycin and cultured for 6 hours at 37° C. at 200 rpm in a conventional orbital shaker in culture tubes. […] Cultures were transferred to an orbital shaker and incubated at 30° C. and 200 rpm. […] Before the harvest, the OD600 was measured, samples adjusted to 0.6/OD600 were withdrawn, pelleted and frozen at −20° C. […]
Proteins with affinity tag were purified by affinity chromatography and size exclusion. […] Homogenous species of all purified ligands were obtained; no aggregation was detected. Following SOS-PAGE analysis positive fractions were pooled and their protein concentrations were measured. […] Protein concentrations were determined by absorbance measurement at 280 nm using the molar absorbent coefficient. […] Binding of Collagen II was evaluated by SPR measurements using a Biacore 3000 system. […]

Sequence of BSA (P02769 25-607): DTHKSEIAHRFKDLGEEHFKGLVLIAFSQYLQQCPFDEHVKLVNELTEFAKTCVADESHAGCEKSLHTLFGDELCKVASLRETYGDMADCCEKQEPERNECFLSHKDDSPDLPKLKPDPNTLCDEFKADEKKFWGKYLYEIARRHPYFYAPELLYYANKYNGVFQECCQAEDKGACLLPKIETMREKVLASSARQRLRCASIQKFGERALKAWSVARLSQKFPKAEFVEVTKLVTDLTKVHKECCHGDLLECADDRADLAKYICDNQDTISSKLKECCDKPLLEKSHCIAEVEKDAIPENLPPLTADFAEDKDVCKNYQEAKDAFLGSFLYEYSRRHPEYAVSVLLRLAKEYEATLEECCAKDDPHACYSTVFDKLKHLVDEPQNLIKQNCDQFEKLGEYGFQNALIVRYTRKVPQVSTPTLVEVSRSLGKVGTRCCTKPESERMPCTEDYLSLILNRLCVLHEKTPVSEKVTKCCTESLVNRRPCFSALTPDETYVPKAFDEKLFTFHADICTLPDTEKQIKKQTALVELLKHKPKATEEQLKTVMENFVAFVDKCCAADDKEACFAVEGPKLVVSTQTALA

Row | Substance | Binding to control BSA (SPR) (BSA) | Binding to control extradomain B of fibronectin (SPR) [1] | binding vs human type II collagen (ELISA, words) [2] | binding to type III collagen (ELISA) (human collagen type III) | Binding to Type I collagen (SPR) (Type I collagen) | Binding to Type III collagen (SPR) (Type III collagen) | binding to type I collagen (ELISA) [3] | Solubility Soluble expression [4]
1 | CID 211190: type II collagen binding protein of SEQ ID NO: 1 (monomer) (NAASHDEAQLSALVEIWDLPNLTTRQKQKFIYSLQRDPSVSKEVLGEAQKLNDSQAPK; Col2 binding protein 211190) | not to controls | not to controls | specific binding | additionally | additional binding | additional binding | additionally | 95%
2 | CID 211261: Type II Collagen binding protein of SEQ ID NO: 2 (monomer, motif 25Q-29Y-33W) (IAAKFDEAQSAADSEILHLPNLTEQQRHYFRRWLSDDPSVSTHILTQAQHLNDDQAPK; Col2 binding protein 211261) |  |  |  |  |  |  |  | 95%
